Tests used:
[1] = test system: Cyclin T1 (P-TEFb subunit);CDK9 (P-TEFb subunit);HIV-1 Tat;AFF4 2-73 (human;not given;HIV-1;not given); assay: EMSA
[2] = test system: Cyclin T1 (P-TEFb subunit);CDK9 (P-TEFb subunit);HIV-1 Tat;AFF4 2-98 (human;not given;HIV-1;not given); assay: EMSA
[3] = test system: Cyclin T1 (P-TEFb subunit);CDK9 (P-TEFb subunit);HIV-1 Tat;AFF4 32-67 (human;not given;HIV-1;not given); assay: EMSA
[4] = target: Tat-P-TEFb complex (HIV-1 Tat 1–57, CDK9 1–330, cyclin T1 1–264) (HIV-1 | human) (UniProt P04608)
[5] = target: Tat-P-TEFb complex (HIV-1 Tat 1–57, CDK9 1–330, cyclin T1 1–264) (HIV-1 | human, UniProt P04608 1-57; P50750 1-330; O60563 1-264, N-terminally acetylated (N-acetyl group on M1)); assay: cell-based or functional assay
[6] = target: T1, human cyclin T1 1–264 (human, UniProt O60563 1-264); assay: crystal structure; quaternary complex of Tat 1–57, AFF4 2–73, CDK9 1–330 and CycT1 1–264; 3.0 Å; three complexes in the a.u.; crystals from 2.4 M sodium formate, 10 mM MgCl2 at 18°C; details: both partners purified
T1 construct: human cyclin T1, residues 1-264; also called CycT1

[7] = target: T2, human CDK9 1–330 (human, UniProt P50750 1-330); assay: as above; details: both partners purified
T2 construct: human CDK9, residues 1-330
T2 sequence (P50750 1-330): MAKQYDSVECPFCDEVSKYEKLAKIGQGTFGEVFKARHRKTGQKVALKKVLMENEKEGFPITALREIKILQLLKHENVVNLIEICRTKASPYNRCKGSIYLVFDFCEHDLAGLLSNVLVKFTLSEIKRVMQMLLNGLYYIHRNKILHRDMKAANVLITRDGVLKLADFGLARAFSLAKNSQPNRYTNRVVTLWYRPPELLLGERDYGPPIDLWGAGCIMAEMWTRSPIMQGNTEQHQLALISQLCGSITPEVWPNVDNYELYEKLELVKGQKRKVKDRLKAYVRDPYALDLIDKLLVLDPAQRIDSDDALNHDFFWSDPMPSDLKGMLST

T1 sequence (O60563 1-264): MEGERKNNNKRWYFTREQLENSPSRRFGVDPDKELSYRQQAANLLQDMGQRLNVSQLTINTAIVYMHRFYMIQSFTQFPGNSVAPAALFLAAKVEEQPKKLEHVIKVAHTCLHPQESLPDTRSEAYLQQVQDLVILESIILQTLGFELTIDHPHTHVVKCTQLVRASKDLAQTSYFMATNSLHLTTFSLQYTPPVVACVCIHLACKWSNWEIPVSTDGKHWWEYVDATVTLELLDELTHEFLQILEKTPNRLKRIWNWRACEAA

TAR RNA (nucleotides 18-44)
K half [1]: 1.1 nM | K half [2]: 1.1 nM | K half [3]: 1.1 nM

B1: AFF4 fragment 2–98 (domain or fragment)
chain: NREDRNVLRMKERERRNQEIQQGEDAFPPSSPLFAEPYKVTSKEDKLSSRIQSMLGNYDEMKDFIGDRSIPKLVAIPKPTVPPSADEKSNPNFFEQR
EMSA with 32P-labeled TAR RNA and Tat-P-TEFb in the presence of excess AFF4 2–98: increase of the affinity for TAR [4]: 30 fold

SPLFAEPYKVTSKEDKLSSRIQSMLGNYDEMKDFIG (domain or fragment) [AFF4 fragment 32–67]
EMSA with 32P-labeled TAR RNA and Tat-P-TEFb in the presence of excess AFF4 32–67: increase of the affinity for TAR [4]: 30 fold

B2: AFF4 fragment 2–73 (domain or fragment, UniProt Q9UHB7 2-73, looked up)
chain: NREDRNVLRMKERERRNQEIQQGEDAFPPSSPLFAEPYKVTSKEDKLSSRIQSMLGNYDEMKDFIGDRSIPK
notes: AFF4 (SEC scaffold), residues 2-73; The His-tag is TEV-protease-cleavable; also called AFF4_(2–73); source: E. coli, purified
EMSA with 32P-labeled TAR RNA and Tat-P-TEFb in the presence of excess AFF4 2–73: increase of the affinity for TAR [5]: 30 fold | binding result [6]: binds | binding result [7]: binds

Source: PMC4013717, “AFF4 binding to Tat-P-TEFb indirectly stimulates TAR recognition of super elongation complexes at the HIV promoter” (eLife, 2014)
